Test results published in US12059458B2, “Peptides and combination of peptides and scaffolds for use in immunotherapy against renal cell carcinoma (RCC) and other cancers” (Immatics Biotechnologies GmbH, priority 2015, dated 2024).

Experiments:
HLA-A*02:01 = HLA-A*02:01 (Homo sapiens, UniProt P04439, D140Y/D185E/D98H/E176V/E277Q/G131W/G231S/I119V/I121R/I166T/I218V/L300P/L318F/N151K/N90K/P208A/P217A/Q86G/Q94H/R138H/R169H/T345S); assay: MHC binding assay (UV-ligand exchange, beta2m ELISA, peptide exchange yield); conditions: binding to HLA-A*02:01 ranged by peptide exchange yield, β2m ELISA
Description: Candidate peptides for T cell based therapies according to the present invention were further tested for their MHC binding capacity (affinity). The individual peptide-MHC complexes were produced by UV-ligand exchange, where a UV-sensitive peptide is cleaved upon UV-irradiation, and exchanged with the peptide of interest as analyzed. Only peptide candidates that can effectively bind and stabilize the peptide-receptive MHC molecules prevent dissociation of the MHC complexes. To determine the yield of the exchange reaction, an ELISA was performed based on the detection of the light chain (β2m) of stabilized MHC complexes. The assay was performed as generally described in Rodenko et al. (Rodenko et al., 2006).
96 well MAXISorp plates (NUNC) were coated over night with 2 ug/ml streptavidin in PBS at room temperature, washed 4× and blocked for 1 h at 37° C. in 2% BSA containing blocking buffer. Refolded HLA-A*02:01/MLA-001 monomers served as standards, covering the range of 15-500 ng/ml. Peptide-MHC monomers of the UV-exchange reaction were diluted 100 fold in blocking buffer. Samples were incubated for 1 h at 37° C., washed four times, incubated with 2 ug/ml HRP conjugated anti-β2m for 1h at 37° C., washed again and detected with TMB solution that is stopped with […]. Absorption was measured at 450 nm. Candidate peptides that show a high exchange yield (preferably higher than 50%, most preferred higher than 75%) are generally preferred for a generation and production of antibodies or fragments thereof, and/or T cell receptors or fragments thereof, as they show sufficient avidity to the MHC molecules and prevent dissociation of the MHC complexes.

[1] = test system: CD8+ T cells of healthy HLA-A*02 donors; assay: In vitro immunogenicity: T-cell priming with aAPCs loaded with peptide/MHC complexes and anti-CD28 antibody, pMHC multimer readout; format: cell-based, human; conditions: for Wells positive [%]: Table 10B; for donors: percentage of positive donors; for donors / wells: Table 10A; for wells: percentage of positive wells
Description: In order to obtain information regarding the immunogenicity of the TUMAPs of the present invention, the inventors performed investigations using an in vitro T-cell priming assay based on repeated stimulations of CD8+ T cells with artificial antigen presenting cells (aAPCs) loaded with peptide/MHC complexes and anti-CD28 antibody.
In order to perform in vitro stimulations by artificial antigen presenting cells loaded with peptide-MHC complex (pMHC) and anti-CD28 antibody, the inventors first isolated CD8+ T cells from fresh HLA-A*02 leukapheresis products via positive selection using CD8 microbeads (Miltenyi Biotec, Bergisch-Gladbach, Germany) of healthy donors obtained from the University clinics Mannheim, Germany, after informed consent.
PBMCs and isolated CD8+ lymphocytes were incubated in T-cell medium (TCM) until use consisting of RPMI-Glutamax (Invitrogen, Karlsruhe, Germany) supplemented with 10% heat inactivated human AB serum (PAN-Biotech, Aidenbach, Germany), 100 U/ml Penicillin/100 μg/ml Streptomycin (Cambrex, Cologne, Germany), 1 mM sodium pyruvate (CC Pro, Oberdorla, Germany), 20 μg/ml Gentamycin (Cambrex). 2.5 ng/ml IL-7 (PromoCell, Heidelberg, Germany) and 10 U/ml IL-2 (Novartis Pharma, Nümberg, Germany) were also added to the TCM at this step.
Generation of pMHC/anti-CD28 coated beads, T-cell stimulations and readout was performed in a highly defined in vitro system using four different pMHC molecules per stimulation condition and 8 different pMHC molecules per readout condition.
The purified co-stimulatory mouse IgG2a anti human CD28 Ab 9.3 (Jung et al., 1987) was chemically biotinylated using Sulfo-N-hydroxysuccinimidobiotin as recommended by the manufacturer (Perbio, Bonn, Germany). Beads used were 5.6 μm diameter streptavidin coated polystyrene particles (Bangs Laboratories, Illinois, USA).
pMHC used for positive and negative control stimulations were A*0201/MLA-001 (peptide […] (SEQ ID NO. 152) from modified Melan-A/MART-1) and A*0201/DDX5-001 ([…] from DDX5 (SEQ ID NO. 153)), respectively.
800.000 beads/200 μl were coated in 96-well plates in the presence of 4×12.5 ng different biotin-pMHC, washed and 600 ng biotin anti-CD28 were added subsequently in a volume of 200 μl. Stimulations were initiated in 96-well plates by co-incubating […] CD8+ T cells with 2×10^5 washed coated beads in 200 μl TCM supplemented with 5 ng/ml IL-12 (PromoCell) for 3 days at 37° C. Half of the medium was then exchanged by fresh TCM supplemented with 80 U/ml IL-2 and incubating was continued for 4 days at 37° C. This stimulation cycle was performed for a total of three times. For the pMHC multimer readout using 8 different pMHC molecules per condition, a two-dimensional combinatorial coding approach was used as previously described (Andersen et al., 2012) with minor modifications encompassing coupling to 5 different fluorochromes. Finally, multimeric analyses were performed by staining the cells with Live/dead near IR dye (Invitrogen, Karlsruhe, Germany), CD8-FITC antibody clone SK1 (BD, Heidelberg, Germany) and fluorescent pMHC multimers. For analysis, a BD LSRII SORP cytometer equipped with appropriate lasers and filters was used. Peptide specific cells were calculated as percentage of total CD8+ cells. Evaluation of multimeric analysis was done using the FlowJo software (Tree Star, Oregon, USA). In vitro priming of specific multimer+ CD8+ lymphocytes was detected by comparing to negative control stimulations.

Substance	Peptide exchange (MHC class I binding score) (HLA-A*02:01)	Wells positive [%] [1]	donors [1]	wells [1]
2 (ILWREVVTL; listed as Homo sapiens) [compound 2]	+++ (≥50 = +++)	+ (<20% = +)	–	–
127 (VLAPLFVYL; listed as Homo sapiens) [compound 127]	–	–	++++ (> = 70% = ++++)	++ (20%-49% = ++)
36 (SLFGKKYIL; listed as Homo sapiens) [compound 36]	++ (≥20% = ++)	++ (20%-49% = ++)	–	–
9 (ILLQKPDSV; listed as Homo sapiens) [compound 9]	++ (≥20% = ++)	+ (<20% = +)	–	–
34 (ELNNQNFYL; listed as Homo sapiens) [compound 34]	+++ (≥50 = +++)	++ (20%-49% = ++)	–	–
16 (FMPEELPQL; listed as Homo sapiens) [compound 16]	++ (≥20% = ++)	+ (<20% = +)	–	–
15 (ILIKHLVKV; listed as Homo sapiens) [compound 15]	++ (≥20% = ++)	+ (<20% = +)	–	–
3 (RLLGEVQAL; listed as Homo sapiens) [compound 3]	++ (≥20% = ++)	+ (<20% = +)	–	–
143 (ALFVRLLALA; listed as Homo sapiens) [compound 143]	–	–	+++ (50%-69% = +++)	+ (<20% = +)
1 (ALIVSLPYL; listed as Homo sapiens) [compound 1]	+++ (≥50 = +++)	+ (<20% = +)	–	–
20 (AVANTTFTV; listed as Homo sapiens) [compound 20]	++ (≥20% = ++)	+ (<20% = +)	–	–
19 (LLDPGSLQL; listed as Homo sapiens) [compound 19]	++ (≥20% = ++)	–	–	–
17 (ILAQQVHAL; listed as Homo sapiens) [compound 17]	+++ (≥50 = +++)	–	–	–
35 (VLHSLQTQL; listed as Homo sapiens) [compound 35]	++ (≥20% = ++)	–	–	–
29 (ILLDLEQAL; listed as Homo sapiens) [compound 29]	+++ (≥50 = +++)	+ (<20% = +)	–	–
11 (FIQTEAPKEV; listed as Homo sapiens) [compound 11]	++ (≥20% = ++)	–	–	–
22 (FLSPPLPSV; listed as Homo sapiens) [compound 22]	+++ (≥50 = +++)	++ (20%-49% = ++)	–	–
14 (ALLTETIFL; listed as Homo sapiens) [compound 14]	++ (≥20% = ++)	–	–	–
64 (LLAASVALA; listed as Homo sapiens) [compound 64]	++ (≥20% = ++)	–	–	–
38 (VLLDTILQL; listed as Homo sapiens) [compound 38]	+++ (≥50 = +++)	–	–	–
7 (FLLSLIDRL; listed as Homo sapiens) [compound 7]	+++ (≥50 = +++)	+ (<20% = +)	–	–
24 (FTLGTTVFL; listed as Homo sapiens) [compound 24]	+++ (≥50 = +++)	–	–	–
52 (SILDAVQRV; listed as Homo sapiens) [compound 52]	++ (≥20% = ++)	–	–	–
31 (VLFGLDPAVIKV; listed as Homo sapiens) [compound 31]	+++ (≥50 = +++)	–	–	–
61 (SLMGILLRI; listed as Homo sapiens) [compound 61]	++ (≥20% = ++)	–	–	–
67 (LLDVLAPLV; listed as Homo sapiens) [compound 67]	++ (≥20% = ++)	–	–	–
48 (VVASNIMEV; listed as Homo sapiens) [compound 48]	++ (≥20% = ++)	–	–	–
30 (QLFYTKIFL; listed as Homo sapiens) [compound 30]	++ (≥20% = ++)	–	–	–
123 (YVDPVITSI; listed as Homo sapiens) [compound 123]	–	–	++++ (> = 70% = ++++)	+ (<20% = +)

More lines, main results first:

Peptide exchange (MHC class I binding score) (HLA-A*02:01)	Substance	Wells positive [%] [1]	donors [1]	wells [1]
++ (≥20% = ++)	94 (ILHHKVYDL; listed as Homo sapiens) [compound 94]	++ (20%-49% = ++)	–	–
++ (≥20% = ++)	95 (KLTDVGIATL; listed as Homo sapiens) [compound 95]	++++ (> = 70% = ++++)	–	–
+++ (≥50 = +++)	114 (ALAVNISAA; listed as Homo sapiens) [compound 114]	–	–	–
+++ (≥50 = +++)	104 (ALFEGVVRQI; listed as Homo sapiens) [compound 104]	–	–	–
+++ (≥50 = +++)	105 (ALADLDELLIRA; listed as Homo sapiens) [compound 105]	–	–	–
+++ (≥50 = +++)	107 (VLMDLKALLL; listed as Homo sapiens) [compound 107]	–	–	–
+++ (≥50 = +++)	75 (FLIKSINLV; listed as Homo sapiens) [compound 75]	–	–	–
++ (≥20% = ++)	89 (SLLLAVTEV; listed as Homo sapiens) [compound 89]	–	–	–
++ (≥20% = ++)	98 (KIPPVSPSI; listed as Homo sapiens) [compound 98]	++++ (> = 70% = ++++)	–	–
+++ (≥50 = +++)	92 (FLFRDILEL; listed as Homo sapiens) [compound 92]	–	–	–
++ (≥20% = ++)	110 (LLDLHSYLL; listed as Homo sapiens) [compound 110]	–	–	–
++ (≥20% = ++)	81 (SLLPALPKL; listed as Homo sapiens) [compound 81]	–	–	–
++ (≥20% = ++)	77 (SLIKHKIML; listed as Homo sapiens) [compound 77]	–	–	–
++++ (≥75% = ++++)	109 (YLWSRVEKL; listed as Homo sapiens) [compound 109]	–	–	–
++ (≥20% = ++)	108 (VLISVLQAI; listed as Homo sapiens) [compound 108]	–	–	–
